Source: patent publication US20180305421A1 (SHIRE HUMAN GENETIC THERAPIES, published 2018)

T1: myostatin (UniProt O14793 267-375)
T1 sequence (looked up): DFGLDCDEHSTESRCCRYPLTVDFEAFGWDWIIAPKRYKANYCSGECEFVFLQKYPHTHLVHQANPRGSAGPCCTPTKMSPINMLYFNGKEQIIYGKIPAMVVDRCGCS

B1: GDF-11 (ligand, UniProt O95390 299-407, looked up)
chain: NLGLDCDEHSSESRCCRYPLTVDFEAFGWDWIIAPKRYKANYCSGQCEYMFMQKYPHTHLVQQANPRGSAGPCCTPTKMSPINMLYFNDKQQIIYGKIPGMVVDRCGCS
B2: BMP-9 (ligand, UniProt Q9UK05 320-429, looked up)
chain: SAGAGSHCQKTSLRVNFEDIGWDSWIIAPKEYEAYECKGGCFFPLADDVTPTKHAIVQTLVHLKFPTKVGKACCVPTKLSPISVLYKDDMGVPTLKYHYEGMSVAECGCR
B3: FS315 (R&D Systems) (other)
chain: GNCWLRQAKNGRCQVLYKTELSKEECCSTGRLSTSWTEEDVNDNTLFKWMIFNGGAPNCIPCKETCENVDCGPGKKCRMNKKNKPRCVCAPDCSNITWKGPVCGLDGKTYRNECALLKARCKEQPELEVQYQGRCKKTCRDVFCPGSSTCVVDQTNNAYCVTCNRICPEPASSEQYLCGNDGVTYSSACHLRKATCLLGRSIGLAYEGKCIKAKSCEDIQCTGGKKCLWDFKVGRGRCSLCDELCPDSKSDEPVCASDNATYASECAMKEAACSSGVLLEVKHSGSCNSISEDTEEEEEDEDQDYSFPISSILEW
B4: BMP-6 (ligand, UniProt P22004 382-513, looked up)
chain: QQSRNRSTQSQDVARVSSASDYNSSELKTACRKHELYVSFQDLGWQDWIIAPKGYAANYCDGECSFPLNAHMNATNHAIVQTLVHLMNPEYVPKPCCAPTKLNAISVLYFDDNSNVILKKYRNMVVRACGCH
B5: sActRIIB-hFc (Fc fusion, UniProt Q13705 25-134, looked up)
chain: ETRECIYYNANWELERTNQSGLERCEGEQDKRLHCYASWRNSSGTIELVKKGCWLDDFNCYDRQECVATEENPQVYFCCCEGNFCNERFTHLPEAGGPEVTYEPPPTAPT
notes: Control protein in the Biacore assay; also called sActRTIB-hFc; sActRIIB-Fc; not shown: human Fc
B6: BMP-4 (ligand, UniProt P12644 293-408, looked up)
chain: SPKHHSQRARKKNKNCRRHSLYVDFSDVGWNDWIVAPPGYQAFYCHGDCPFPLADHLNSTNHAIVQTLVNSVNSSIPKACCVPTELSAISMLYLDEYDKVVLKNYQEMVVEGCGCR
B7: BMP-7 (ligand, UniProt P18075 293-431, looked up)
chain: STGSKQRSQNRSKTPKNQEALRMANVAENSSSDQRQACKKHELYVSFRDLGWQDWIIAPEGYAAYYCEGECAFPLNSYMNATNHAIVQTLVHFINPETVPKPCCAPTQLNAISVLYFDDSSNVILKKYRNMVVRACGCH
B8: BMP-2 (ligand, UniProt P12643 283-396, looked up)
chain: QAKHKQRKRLKSSCKRHPLYVDFSDVGWNDWIVAPPGYHAFYCHGECPFPLADHLNSTNHAIVQTLVNSVNSKIPKACCVPTELSAISMLYLDENEKVVLKNYQDMVVEGCGCR
B9: BMP-10 (ligand, UniProt O95393 317-424, looked up)
chain: NAKGNYCKRTPLYIDFKEIGWDSWIIAPPGYEAYECRGVCNYPLAEHLTPTKHAIIQALVHLKNSQKASKACCVPTKLEPISILYLDKGVVTYKFKYEGMAVSECGCR
B10: follistatin-Fc human chimera FS315-hFc (Sino Biological Inc. Catalog Number 10685-H02H) (Fc fusion)
chain: GNCWLRQAKNGRCQVLYKTELSKEECCSTGRLSTSWTEEDVNDNTLFKWMIFNGGAPNCIPCKETCENVDCGPGKKCRMNKKNKPRCVCAPDCSNITWKGPVCGLDGKTYRNECALLKARCKEQPELEVQYQGRCKKTCRDVFCPGSSTCVVDQTNNAYCVTCNRICPEPASSEQYLCGNDGVTYSSACHLRKATCLLGRSIGLAYEGKCIKAKSCEDIQCTGGKKCLWDFKVGRGRCSLCDELCPDSKSDEPVCASDNATYASECAMKEAACSSGVLLEVKHSGSCNSISEDTEEEEEDEDQDYSFPISSILEWALEVLFQGP
notes: Bought fusion protein; also called Sino Biological FS315-hFc; not shown: human Fc of the bought product
B11: activin (ligand, UniProt P08476 311-426, looked up)
chain: GLECDGKVNICCKKQFFVSFKDIGWNDWIIAPSGYHANYCEGECPSHIAGTSGSSLSFHSTVINHYRMRGHSPFANLKSCCVPTKLRPMSMLYYDDGQNIIKKDIQNMIVEECGCS
notes: also called activin A

What was measured:
[1] = molecular target: B10; assay: Biacore SPR, 25 C; Fc fusion captured with human antibody capture kit, ligand as soluble analyte
From the text: (§1) Specifically, commercially available follistatins (FS315, manufactured by R&D Systems and follistatin-Fc human chimera FS315-hFc, manufactured by Sino Biological), and FS315-GAG3-mFc fusion proteins were used to assess binding affinity and kinetics to activin, myostatin, and BMPs using Biacore assays. Briefly, FS315 was immobilized onto a CM5 chip, and follistatin-Fc fusion proteins were captured using human or mouse antibody capture kits (GE Healthcare). Post amine-coupling, a concentration series of activin, myostatin, or BMPs (e.g., BMP-2, -4, -6, -7, -9, -10, and GDF-1) was added as soluble analyte at 25° C. sActRTIB-hFc was used as a control. Binding affinities (Kd) and kinetics were determined using standard methods.

sActRIIB-hFc = molecular target: B5; assay: as above
From the text: as §1

FS315 (R&D Systems) [2] = molecular target: B3; assay: Biacore SPR, 25 C; FS315 immobilized on CM5 chip, ligand as soluble analyte
From the text: as §1

[3] = molecular target: B10; assay: Biacore SPR, 25 C; Fc fusion captured with antibody capture kit, ligand as soluble analyte
From the text: as §1

myostatin [4] = molecular target: T1, myostatin; assay: cell-based or functional assay
activin [5] = molecular target: B11; assay: cell-based or functional assay
myostatin [6] = molecular target: T1, myostatin; assay: cell-based or functional assay; remark: listed apart in the source
BMP-9 [7] = molecular target: B2; assay: cell-based or functional assay
BMP-2 = molecular target: B8; assay: Biacore SPR, 25 C; Fc fusion captured with antibody capture kit, ligand as soluble analyte
From the text: as §1

BMP-9 [8] = molecular target: B2; assay: Biacore SPR, 25 C; Fc fusion captured with human antibody capture kit, ligand as soluble analyte
From the text: as §1

activin [9] = molecular target: B11; assay: as above
From the text: as §1

BMP-4 = molecular target: B6; assay: as above
From the text: as §1

BMP-6 = molecular target: B4; assay: as above
From the text: as §1

BMP-7 = molecular target: B7; assay: as above
From the text: as §1

FS315 (R&D Systems) [10] = molecular target: B3; assay: Biacore SPR, 25 C; FS315 immobilized on CM5 chip, ligand as soluble analyte; Table 3 cell for this pair: fitted KD, FS315 immobilized on CM5, BMP-10 as analyte, 25 C
From the text: as §1

myostatin [11] = molecular target: T1, myostatin; assay: Biacore SPR (Table 3)
From the text: as §1

FS315 (R&D Systems) [12] = molecular target: B3; assay: Biacore SPR, 25 C; FS315 immobilized on CM5 chip, ligand as soluble analyte; FS315 (R&D Systems, no Fc) amine-coupled to CM5 chip; activin as soluble analyte; 25 C
From the text: as §1

Binder: B1
- Kd [1]: 0.82 nM
- Kd (sActRIIB-hFc): 0.34 nM

Binder: B2
- binding result (FS315 (R&D Systems) [2]): no binding
- binding result [3]: no binding

Binder: B3
- IC50, CAGA-luciferase reporter assay for Smad2/3 signaling (1.2 nM myostatin) (myostatin [4]): 0.45 nM
- IC50, CAGA-luciferase reporter assay for Smad2/3 signaling (1.2 nM activin) (activin [5]): 0.4 nM
- IC50 (read off the curve); CAGA-luciferase reporter in HEK293 cells, myostatin (1.2 nM)-induced Smad2/3 signalling (myostatin [6]): ~0.2 nM

Binder: B4
- Kd (FS315 (R&D Systems) [2]): 0.36 nM
- Kd [1]: 0.9 nM

Binder: B5
- IC50 (read off the curve); BRE-luciferase reporter in HEK293 cells, BMP-9-induced Smad1/5/8 signalling (BMP-9 [7]): ~20 nM
- binding result (BMP-2): no binding
- Kd (BMP-9 [8]): 0.054 nM
- Kd (activin [9]): 0.07 nM
- Kd (BMP-4): 130 nM
- Kd (BMP-6): 0.057 nM
- Kd (BMP-7): 1.1 nM

Binder: B6
- Kd (FS315 (R&D Systems) [2]): 14 nM

Binder: B7
- Kd (FS315 (R&D Systems) [2]): 38 nM

Binder: B8
- Kd (FS315 (R&D Systems) [2]): 440 nM
- binding result [3]: no binding

Binder: B9
- Kd [1]: 150 nM
- Kd (sActRIIB-hFc): 0.01 nM
- Kd (FS315 (R&D Systems) [10]): 100 nM

Binder: B10
- fold increase of binding affinity against follistatin (FS315) (myostatin [11]): ≥ 10 fold
- IC50, CAGA-luciferase reporter assay for Smad2/3 signaling (1.2 nM myostatin) (myostatin [4]): 2.99 nM
- IC50, CAGA-luciferase reporter assay for Smad2/3 signaling (1.2 nM activin) (activin [5]): 2.9 nM

Binder: B11
- Kd [1]: 0.19 nM
- Kd (FS315 (R&D Systems) [12]): 0.73 nM
